Results as given in article PMC12375101.

Assays:
Aurora A [1] = target: Aurora A (UniProt O14965); experiment: GST-Aurora A pull-down of MBP-Bora; conditions: reference: unphosphorylated MBP-Bora; sites S59
Aurora A [2] = target: Aurora A (UniProt O14965); experiment: Myc co-IP, Aurora A immunoblot; conditions: reference: wild type Bora-Myc; sites S59
Aurora A [3] = target: Aurora A (UniProt O14965); experiment: GFP co-IP, Aurora A immunoblot; conditions: reference: wild type Bora-GFP; sites S59
Aurora A [4] = target: Aurora A (UniProt O14965); experiment: co-IP of Bora-GFP, Aurora A immunoblot; conditions: reference: wild type Bora-GFP; sites S59

Substance	binding against the reference (Aurora A [1])	binding against the reference (Aurora A [2])	binding against the reference (Aurora A [3])	binding against the reference (Aurora A [4])
Bora (from UniProt Q6PGQ7) MBP-Bora-S59ph (genetic code expansion)	stronger	–	–	–
Bora (from UniProt Q6PGQ7) S59A	–	weaker	weaker	weaker
